T1: GCN4-SUN2 C705A (His6-GCN4 fusion of SUN2 522–717 C705A) (human, UniProt Q9UH99 522-717, C705A)
T1 construct: SUN2, human, SUN domain, residues 522-717, C705A; The GCN4 tag is a trimerising tag (Sosa et al., 2012); not shown: His6, N-terminal, kept; GCN4, N-terminal, kept
T1 sequence (looked up): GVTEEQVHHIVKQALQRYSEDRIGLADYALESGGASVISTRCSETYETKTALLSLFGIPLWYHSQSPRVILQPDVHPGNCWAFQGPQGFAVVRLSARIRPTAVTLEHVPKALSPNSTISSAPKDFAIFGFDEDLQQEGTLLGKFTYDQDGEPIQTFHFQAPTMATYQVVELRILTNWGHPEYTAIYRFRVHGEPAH

B1: GCN4-SUN2 (His6-GCN4 fusion of the SUN domain of human SUN2, residues 522–717), wild-type (domain or fragment, UniProt Q9UH99 522-717, looked up)
chain: GVTEEQVHHIVKQALQRYSEDRIGLADYALESGGASVISTRCSETYETKTALLSLFGIPLWYHSQSPRVILQPDVHPGNCWAFQGPQGFAVVRLSARIRPTAVTLEHVPKALSPNSTISSAPKDFAIFGFDEDLQQEGTLLGKFTYDQDGEPIQTFHFQAPTMATYQVVELRILTNWGHPEYTCIYRFRVHGEPAH
notes: SUN2, human, SUN domain, residues 522-717; The GCN4 tag is a trimerising tag (Sosa et al., 2012); not shown: His6, N-terminal, kept; GCN4, N-terminal, kept
B2: GCN4-SUN1 (His6-GCN4 fusion of the SUN domain of human SUN1, residues 616–812), wild-type (domain or fragment)
chain: GITEAQARAIVNSALKLYSQDKTGMVDFALESGGGSILSTRCSETYETKTALMSLFGIPLWYFSQSPRVVIQPDIYPGNCWAFKGSQGYLVVRLSMMIHPAAFTLEHIPKTLSPTGNISSAPKDFAVYGLENEYQEEGQLLGQFTYDQDGESLQMFQALKRPDDTAFQIVELRIFSNWGHPEYTCLYRFRVHGEPVK

Experiments:
[1] = target: the molecule itself; assay: SEC-MALS; co-expressed and co-purified samples at >1 mg/ml on Superdex 200 Increase 10/300 GL in 20 mM Tris pH 8.0, 150 mM KCl, 2 mM DTT
[2] = target: B2; assay: as above; details: both partners purified
[3] = target: the molecule itself; assay: not stated; unpublished findings (Gurusaran and Davies)
[4] = target: B1; assay: SEC-MALS; co-expressed and co-purified samples at >1 mg/ml on Superdex 200 Increase 10/300 GL in 20 mM Tris pH 8.0, 150 mM KCl, 2 mM DTT; details: both partners purified
[5] = target: T1, GCN4-SUN2 C705A (His6-GCN4 fusion of …); assay: as above; details: both partners purified

| Binder | stoichiometry N [1] | stoichiometry N [2] | other results |
| --- | --- | --- | --- |
| B1 | 3 | – | – |
| GPSPPPTWPHLQLCYLQPPPV (domain or fragment, UniProt Q8N6L0 542-562, looked up, KASH5, human, C-terminal KASH domain, residues 542-562) [MBP-KASH5 (His6-MBP fusion of the KASH domain of human KASH5, residues 542–562)] | – | 1 binder:target ratio (6:6) | – |
| KASH5 (construct not told; unpublished findings) (natural protein, human, UniProt Q8N6L0 1-562, looked up, KASH5, human; Told only as 'KASH5 is dimeric (Gurusaran and Davies, unpublished findings)') MDLPEGPVGGPTAEMYLRERPEEARLGMPVSLEEQILNSTFEACDPQRTGTVAVAQVLAYLEAVTGQGPQDARLQTLANSLDPNGEGPKATVDLDTFLVVMRDWIAACQLHGGLELEEETAFQGALTSRQLPSGCPEAEEPANLESFGGEDPRPELQATADLLSSLEDLELSNRRLVGENAKLQRSMETAEEGSARLGEEILALRKQLHSTQQALQFAKAMDEELEDLKTLARSLEEQNRSLLAQARQAEKEQQHLVAEMETLQEENGKLLAERDGVKKRSQELAMEKDTLKRQLFECEHLICQRDTILSERTRDVESLAQTLEEYRVTTQELRLEISRLEEQLSQTYEGPDELPEGAQLRRVGWTELLPPSLGLEIEAIRQKQEVATADLSNPLCGVWQWEEVIHETSEETEFPSEAPAGGQRNFQGEPAHPEEGRKEPSMWLTRREEEEDAESQVTADLPVPLGAPRPGDIPENPPERPARRELQQALVPVMKKLVPVRRRAWGQLCLPPQRLRVTRHPLIPAPVLGLLLLLLLSVLLLGPSPPPTWPHLQLCYLQPPPV | – | – | stoichiometry N [3]: 2 |
| B2 | 3 | – | – |
| ASGGPCCSHARIPRTPYLVLSYVNGLPPV (domain or fragment, UniProt Q8N205 376-404, looked up, Nesprin-4, human, C-terminal KASH domain, residues 376-404) [MBP-KASH4 (His6-MBP fusion of the KASH domain of human Nesprin-4, residues 376–404)] | – | 1 binder:target ratio (6:6) | stoichiometry N [4]: 1 binder:target ratio (6:6) |
| MBP-KASH1 (His6-MBP fusion of the KASH domain of human Nesprin-1, residues 8769–8797) (domain or fragment, Nesprin-1, human, C-terminal KASH domain, residues 8769-8797) not shown | – | 1 binder:target ratio (6:6) | stoichiometry N [5]: 1 binder:target ratio (6:6) |

From publication PMC7800377, “A molecular mechanism for LINC complex branching by structurally diverse SUN-KASH 6:6 assemblies” (eLife, 2021)
